{"source": "IntAct's records for PubMed 26167883", "molecular_target": "mcm2_human MCM2 (UniProt P49736)", "data": [{"substance": "Histone H3.1 (Homo sapiens) (from UniProt P68431) R64A;K65A", "values": [{"measurement": "effect of a mutation on the interaction", "result": "decreasing interaction strength"}]}]}
